T1: human 4IgB7H3 (Homo sapiens, UniProt Q5ZPR3)
T1 construct: Uniprot ID: Q5ZPR3, amino acids 29-461; made in house; host or cells: Expi293F
T1 sequence (Q5ZPR3 29-461): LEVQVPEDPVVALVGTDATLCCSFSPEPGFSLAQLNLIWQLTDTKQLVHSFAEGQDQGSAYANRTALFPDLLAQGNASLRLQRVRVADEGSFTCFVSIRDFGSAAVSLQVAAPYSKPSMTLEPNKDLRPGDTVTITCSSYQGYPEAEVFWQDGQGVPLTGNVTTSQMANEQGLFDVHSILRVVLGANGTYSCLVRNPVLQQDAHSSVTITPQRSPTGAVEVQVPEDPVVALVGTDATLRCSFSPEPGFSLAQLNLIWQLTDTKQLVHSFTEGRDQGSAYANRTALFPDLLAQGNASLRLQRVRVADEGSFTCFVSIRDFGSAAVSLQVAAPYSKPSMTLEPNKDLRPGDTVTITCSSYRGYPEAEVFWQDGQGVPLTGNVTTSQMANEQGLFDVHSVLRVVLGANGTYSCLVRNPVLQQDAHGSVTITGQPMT

T2: human B7H3 (Homo sapiens, UniProt Q5ZPR3)
T2 construct: MCF-7 cells expressing human full-length B7H3; host or cells: MCF-7
T2 sequence (Q5ZPR3 29-534): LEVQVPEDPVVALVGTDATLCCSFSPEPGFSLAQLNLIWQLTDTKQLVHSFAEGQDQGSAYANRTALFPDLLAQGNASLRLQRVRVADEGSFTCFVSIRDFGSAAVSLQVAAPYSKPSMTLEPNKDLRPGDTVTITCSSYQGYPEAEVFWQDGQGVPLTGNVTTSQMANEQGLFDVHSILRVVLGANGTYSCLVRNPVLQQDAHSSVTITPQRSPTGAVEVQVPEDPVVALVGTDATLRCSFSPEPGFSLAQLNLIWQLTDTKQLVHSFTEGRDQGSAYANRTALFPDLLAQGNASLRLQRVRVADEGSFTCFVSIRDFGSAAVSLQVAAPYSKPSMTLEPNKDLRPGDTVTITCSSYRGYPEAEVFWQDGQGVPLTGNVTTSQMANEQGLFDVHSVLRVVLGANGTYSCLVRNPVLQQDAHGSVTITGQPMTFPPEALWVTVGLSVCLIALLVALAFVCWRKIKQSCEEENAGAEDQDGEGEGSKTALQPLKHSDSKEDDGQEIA

T3: human 2IgB7H3 (Homo sapiens, UniProt Q5ZPR3)
T3 construct: His tag; purchased ACROBiosystems B73-H52E2
T3 sequence (Q5ZPR3 29-316 isoform Q5ZPR3-2 limits assumed): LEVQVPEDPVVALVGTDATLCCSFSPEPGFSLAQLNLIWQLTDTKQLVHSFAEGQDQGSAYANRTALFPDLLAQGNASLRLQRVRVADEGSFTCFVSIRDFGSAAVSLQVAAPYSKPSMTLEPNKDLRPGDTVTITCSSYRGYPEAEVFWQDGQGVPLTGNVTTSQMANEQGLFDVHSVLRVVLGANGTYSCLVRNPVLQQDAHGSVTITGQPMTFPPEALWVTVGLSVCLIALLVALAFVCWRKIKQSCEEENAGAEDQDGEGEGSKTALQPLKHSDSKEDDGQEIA

B1: Enoblituzumab (MacroGenics): anti-B7H3 benchmark antibody (MacroGenics), SEQ ID NOs: 117 and 119 in U.S. 20120294796A1 (antibody, chains of the INN, looked up)
heavy: EVQLVESGGGLVQPGGSLRLSCAASGFTFSSFGMHWVRQAPGKGLEWVAYISSDSSAIYYADTVKGRFTISRDNAKNSLYLQMNSLRDEDTAVYYCGRGRENIYYGSRLDYWGQGTTVTVSSASTKGPSVFPLAPSSKSTSGGTAALGCLVKDYFPEPVTVSWNSGALTSGVHTFPAVLQSSGLYSLSSVVTVPSSSLGTQTYICNVNHKPSNTKVDKRVEPKSCDKTHTCPPCPAPELVGGPSVFLLPPKPKDTLMISRTPEVTCVVVDVSHEDPEVKFNWYVDGVEVHNAKTKPPEEQYNSTLRVVSVLTVLHQDWLNGKEYKCKVSNKALPAPIEKTISKAKGQPREPQVYTLPPSREEMTKNQVSLTCLVKGFYPSDIAVEWESNGQPENNYKTTPLVLDSDGSFFLYSKLTVDKSRWQQGNVFSCSVMHEALHNHYTQKSLSLSPG
light: DIQLTQSPSFLSASVGDRVTITCKASQNVDTNVAWYQQKPGKAPKALIYSASYRYSGVPSRFSGSGSGTDFTLTISSLQPEDFATYYCQQYNNYPFTFGQGTKLEIKRTVAAPSVFIFPPSDEQLKSGTASVVCLLNNFYPREAKVQWKVDNALQSGNSQESVTEQDSKDSTYSLSSTLTLSKADYEKHKVYACEVTHQGLSSPVTKSFNRGEC

How the values were obtained:
[1] = Pharmacokinetic study, single intravenous infusion in cynomolgus monkeys; details: both sexes, cynomolgus monkey, in vivo
Procedure: 18 cynomolgus monkeys (half female and half male) were weighed one day before administration, stratified based on the weight, and then randomly divided into 3 groups (3 females and 3 males/group): a low dose group (1 mg/kg), a medium dose group (3 mg/kg), and a high dose group (10 mg/kg). […] Blood was collected from the forelimb veins of cynomolgus monkeys in each group, and treated samples of the blood collected at 0 h before and 0.5 […], and 672 h after the administration were used as PK samples. After the blood collection at each time point was completed, serum was obtained by centrifugation for sample analysis.

[2] = test system: human B7H3-expressing cells MCF-7; assay: Internalization test (HCS) in MCF-7 cells; format: cell-based
Procedure: Antibody internalization was determined by operetta CLS (PerkinElmer), a high-content imaging and analysis system that can collect and analyze images of samples at high speed and high sensitivity. MCF-7 cells expressing human full-length B7H3 (1.5×10^4 cells/well) were seeded into a 96-well clear bottom black plate pre-coated with 8 μg/mL poly-D-lysine. After incubation in an incubator set to 37° C., 5% CO2 overnight, various concentrations of the antibodies (3.16-fold serially diluted with 1×DPBS/1% BSA from 50 nM to 0.0005 nM) were incubated in a volume of 100 μL/well in a refrigerator set to 4° C. for 2 h. Anti-human B7H3 reference antibody enoblituzumab (MacroGeneics) was used as a positive control. Human IgG1 isotype antibody was used as a negative control. After washing the cells with 1×DPBS/1% BSA, Alexa 647 goat anti-human antibody (diluted in a 1:500 ratio in 1×DPBS/1% BSA) was added. The cells were incubated in a refrigerator set to 4° C. for 1 h in the dark. The cells were then washed once and resuspended in 1×DPBS/1% BSA at 37° C. for 2 h. […] The mean fluorescence intensity (MFI) of the cells was measured and analyzed by operetta CLS. EC50 values were calculated by four-parameter non-linear regression analysis using GraphPad Prism 7 software.

cynomolgus monkey B7H3 [3] = assay: FACS binding to cynomolgus monkey B7H3-transfected stable cell pool
Procedure: FACS was used to detect the binding of antibodies to cynomolgus monkey B7H3. FlpinCHO cells were transfected with cynomolgus monkey B7H3 (W3XX088-FlpinCHO.cProl.pool) (1×10^5 cells/well), and the transfected cells were incubated with various concentrations of antibodies (3.16-fold serially diluted with 1×DPBS/1% BSA from 50 nM to 0.0005 nM) in a volume of 100 μL/well in a refrigerator set to 4° C. for 1 h. Anti-human B7H3 reference antibody enoblituzumab (MacroGeneics) was used as a positive control. Human IgG1 isotype antibody was used as a negative control. After washing the cells with 1×DPBS/1% BSA, Alexa 647 goat anti-human antibody (diluted in a 1:500 ratio in 1×DPBS/1% BSA) was added. The cells were incubated in a refrigerator set to 4° C. for 0.5 h in the dark. The mean fluorescence intensity (MFI) of the cells was measured by a flow cytometry and analyzed by FlowJo. EC50 values were calculated by four-parameter non-linear regression analysis using GraphPad Prism 7 software.

human 4IgB7H3 = target: T1, human 4IgB7H3; assay: Binding affinity for human 4IgB7H3 (SPR)
Procedure: (§1) The affinity of antibodies for human 4IgB7H3 was determined using surface plasmon resonance (SPR). The affinity of antibodies for human 4IgB7H3 was determined by Biacore 8K. An activator was prepared by mixing 400 mM EDC and 100 mM NHS (GE) immediately prior to injection into the channel. The CM5 sensor chip was activated for 420 seconds with the activator. Goat anti-human Fc IgG (30 μg/mL in 10 mM NaAc, pH 4.5) was then injected into the channel at a flow rate of 10 μL/min for 420 seconds. The chip was deactivated by 1 M ethanolamine hydrochloric acid. The antibodies diluted in running buffer (1×HBS-EP+) were injected into the channel at a flow rate of 10 μL/min for 30 seconds. Seven concentrations (100 nM, 50 nM, 25 nM, 12.5 nM, 6.25 nM, 2.125 nM, and 1.563 nM) of analyte human 4IgB7H3 were injected sequentially into the channel at a flow rate of 30 μL/min for an association phase of 180 seconds, followed by dissociation of 3600 seconds. Glycine (10 mM, pH 1.5) was injected as regeneration buffer after the dissociation phase.
The sensorgrams for the reference channel and the buffer channel were subtracted from the test sensorgrams. The experimental data were fitted with a 1:1 binding model. The molecular weight of the human 4IgB7H3 used in the calculation was 47.8 kDa.

human B7H3 = target: T2, human B7H3; assay: FACS binding to human B7H3-expressing cells MCF-7
Procedure: FACS was used to detect the binding of antibodies to human B7H3. This method allows quantitative analysis and identification of specific molecules expressed on the surface of living cells. Unlabeled cells were used as a control to set a threshold before the assay, and the percentage change for each group that exceeded the fluorescence intensity threshold was analyzed. MCF-7 cells expressing human full-length B7H3 (1×10^5 cells/well) were incubated with various concentrations of antibodies (3.16-fold serially diluted with 1×DPBS/1% BSA from 50 nM to 0.0005 nM) in a volume of 100 μL/well in a refrigerator set to 4° C. for 1 h. Anti-human B7H3 reference antibody enoblituzumab (MacroGeneics) was used as a positive control. Human IgG1 isotype antibody was used as a negative control. After washing the cells with 1×DPBS/1% BSA, Alexa 647 goat anti-human antibody (diluted in a 1:500 ratio in 1×DPBS/1% BSA) was added. The cells were incubated in a refrigerator set to 4° C. for 0.5 h in the dark. The mean fluorescence intensity (MFI) of the cells was measured by a flow cytometry and analyzed by FlowJo. EC50 values were calculated by four-parameter non-linear regression analysis using GraphPad Prism 7 software.

human 2IgB7H3 = target: T3, human 2IgB7H3; assay: Binding affinity for human 2IgB7H3 (SPR)
Procedure: The affinity of antibodies for human 2IgB7H3 was determined using surface plasmon resonance (SPR). The affinity of antibodies for human 2IgB7H3 was determined by Biacore 8K. An activator was prepared by mixing 400 mM EDC and 100 mM NHS (GE) immediately prior to injection into the channel. The CM5 sensor chip was activated for 420 seconds with the activator. Goat anti-human Fc IgG (30 μg/mL in 10 mM NaAc, pH 4.5) was then injected into the channel at a flow rate of 10 μL/min for 420 seconds. The chip was deactivated by 1 M ethanolamine hydrochloric acid. The antibodies diluted in running buffer (1×HBS-EP+) were injected into the channel at a flow rate of 10 μL/min for 30 seconds. Seven concentrations (500 nM, 250 nM, 125 nM, 62.5 nM, 31.25 nM, 15.625 nM, and 7.813 nM) of analyte human 2IgB7H3 were injected sequentially into the channel at a flow rate of 30 μL/min for an association phase of 120 seconds, followed by dissociation of 300 seconds. Glycine (10 mM, pH 1.5) was injected as regeneration buffer after the dissociation phase.
The sensorgrams for the reference channel and the buffer channel were subtracted from the test sensorgrams. The experimental data were fitted with a 1:1 binding model. The molecular weight of the human 2IgB7H3 used in the calculation was 25.2 kDa.

cynomolgus monkey B7H3 [4] = assay: Binding affinity for cynomolgus monkey B7H3 (SPR)
Procedure: as §1, with “cynomolgus monkey B7H3” for “human 4IgB7H3”, “Seven concentrations (100 nM, 50 nM, 25 nM, 12.5 nM, 6.25 nM, 2.125 nM, and 1.563 nM) of analyte human 4IgB7H3 were injected sequentially into the channel at a flow rate of 30 μL/min for an association phase of 180 seconds, followed by dissociation of 3600 seconds.” left out
The sensorgrams for the reference channel and the buffer channel were subtracted from the test sensorgrams. The experimental data for 6 analyte concentrations (50 nM, 25 nM, 12.5 nM, 6.25 nM, 3.125 nM, and 1.563 nM) were fitted with a 1:1 binding model. The molecular weight of the cynomolgus monkey B7H3 used in the calculation was 49 kDa.

| Molecule | AUC(0-t) ([1]; 3 mg/kg) [ng·h/mL] | Cmax ([1]; 3 mg/kg) [ng/mL] | AUC(0-t) ([1]; 10 mg/kg) [ng·h/mL] | Cmax ([1]; 10 mg/kg) [ng/mL] | Antibody internalization Maximum MFI [2] | Maximum MFI (cynomolgus monkey B7H3 [3]) | ka (human 4IgB7H3) [M⁻¹ s⁻¹] | kd (dissociation rate constant) (human 4IgB7H3) [s⁻¹] | Maximum MFI (human B7H3) | ka (human 2IgB7H3) [M⁻¹ s⁻¹] | kd (dissociation rate constant) (human 2IgB7H3) [s⁻¹] | ka (cynomolgus monkey B7H3 [4]) [M⁻¹ s⁻¹] | kd (dissociation rate constant) (cynomolgus monkey B7H3 [4]) [s⁻¹] |
| --- | --- | --- | --- | --- | --- | --- | --- | --- | --- | --- | --- | --- | --- |
| CC[C@@]1(O)C(=O)OCc2c1cc1n(c2=O)Cc2c-1nc1cc(F)c(C)c3c1c2[C@@H](NC(=O)C[C@H](C)O)CC3 [P-III-30] | 1.07 | 0.133 | 44.5 | 0.573 |  |  |  |  |  |  |  |  |  |
| B1 |  |  |  |  | 39777 | 19700 | 124000 | 0.000126 | 4644 | 64400 | 0.0168 | 185000 | 8.14e-05 |
